Data taken from the DeepSol protein solubility set.

Test: soluble on expression in E. coli; label from the status in PepcDB or PDB records

Sequence: MEDIKIKEIFENIYEVDLGDGLKRIATKSIVKGKKVYDEKIIKIGDEEYRIWNPNKSKLAAAIIKGLKVMPIKRDSKILYLGASAGTTPSHVADIADKGIVYAIEYAPRIMRELLDACAERENIIPILGDANKPQEYANIVEKVDVIYEDVAQPNQAEILIKNAKWFLKKGGYGMIAIKARSIDVTKDPKEIFKEQKEILEAGGFKIVDEVDIEPFEKDHVMFVGIWEGK
- soluble on expression in E. coli: soluble

Sequence: NRANPDPNCCLGVFGLSLYTTERDLREVFSKYGPIADVSIVYDQQSRRSRGFAFVYFENVDDAKEAKERANGMELDGRRIRV
- soluble on expression in E. coli: soluble

Sequence: MSLKTVAVIGAMEQEIELLREMMENVKAVSFGRFSAYEGELAGKRMVLALSGIGKVNAAVATAWIIREFAADCVINTGSAGGLGKGLKVGDVVIGTETAHHDVDVTAFGYAWGQVPQLPARFASDGILIEAAKRAARTFEGAAVEQGLIVSGDRFVHSSEGVAEIRKHFPEVKAVEMEAAAIAQTCHQLETPFVIIRAVSDSADEKADISFDEFLKTAAANSAKMVAEIVKSL
- soluble on expression in E. coli: soluble

Sequence: MSLRPRVLLVEDSTSLAILYKQYVKDEPYDIFHVETGRDAIQFIERSKPQLIILDLKLPDMSGEDVLDWINQNDIPTSVIIATAHGSVDLAVNLIQKGAEDFLEKPINADRLKTSVALHLKRAKLEDLVENIQSTFDRHNYHGFIGSSLPMQAVYKTIDAVAPTSASVFIVGESGTGKEVCAEAVHRQSDRRDKPFIAINCGAIPRDLMESEIFGHVKGAFTGATTDRKGAATLAHGGTLFLDELCEMELEMQKTLLRFLQTGTYTPLGGTKEMKVDVRIICATNRDPLTEVEEGRFREDLYYRVHVVPIDMPPLRERGSDIVTLAKHFLTTYAKEDKKKFSNIDTEAQHVIKHYEWPGNVRQLQNIIRNIVVLNNDEKVTVAHLPAQLTQKKTQARTVTPVHVEGHHHHHH
- soluble on expression in E. coli: soluble

Sequence: MKFIFFVLYVLQFLPFALLHKIADLTGLLAYLLVKPRRRIGEINLAKCFSEWSEEKRKTVLKQHFKHMAKLMLEYGLYWYAPAGRLKSLVRYRNKHYLDDALAAGEKVIILYPHFTAFEMAVYALNQDIPLISMYSHQKNKILDEQILKGRNRYHNVFLIGRTEGLRALVKQFRKSSAPFLYLPDQDFGRNDSVFVDFFGIQTATITGLSRIAALANAKVIPAIPVREADNTVTLHFYPAWKSFPGEDAKADAQRMNRFIEDRVREHPEQYFWLHKRFKTRPEGSPDFY
- soluble on expression in E. coli: not soluble

Sequence: MSLIQAIKAKIIVTPGHAPIKDSAVIVKNNIIEKIIPSTELKNNYYQIIDLKNSVVLPGFINSHIHLELHWVQKLLEPFKSFPSWLNQIIKLKKNFNNSKIPYWVNKSLNECINSGVTTIGEISSYDGLDYKPILDKKIRAVYFYELTNSTLKNIENKFFQSLIRNKTNPLINFRIFPHSIYSLDTKSLKRILAFAKKHNIKLGMHLSESIDEVKYSKRKRNNFEKEVFPKTSYKPTIETKPTTPLEYLDTLNINRQHITLIHMNNLSQNDFKILTKKEYPVIICPRSNLYLNQKLPNIKFFMNYMKTGLGTDGLSSNLSINFLDEINFLYLNAKKIINNPEEKILSIATIGGAKALGIDNEVGTIEKGKKADIIAFDLLNKNPYLSIIHSKKRNLKMSMINGKIIKLREGHHHHHH
- soluble on expression in E. coli: soluble

Sequence: MGSDKIHHHHHHVCRNCSNKQKIRKNSMDYTDISILHTNDMHSYMENFPKKAQLIANIRARNEKEGVPTFVFDSGDLFSGNIFFNMYRGVKEIELMNQIGCQAMTLGNHEFDHGDELISRLDDYAQFPIVSSNLRYQDVEVADELVPLEDVLEFDMNGKNLYVLGLTTLETQEVASPSENVIFEDHKQALRRLVDQIVSQNPSAHLVLLSHLGYDEDVHLAKDFPELNVILGGHTHTILKQPSQIGGVSICQAGQYGRFVGHLSLRCFADGRREVQAYDLIEVEKLTQEDRAVKAIIDQMKSERDAAFSKPIAILPQALDGERDSIRQGLSTLAPVICQALFEQASQLGLQADGAVINGFGIRASLSAGPIFYSDLVKVLPFSKRVLLVRIKGRDLLSSLQTGLHPQMWGIVQSGEDLLVNGRAVESDKDYQIVTNSFVWSGKDNYDDFHKAEIVQDLGLDIDIISEFFKRQYGG
- soluble on expression in E. coli: not soluble

Sequence: MAHHHHHHMAESAVLTPLSARHTVSPRDRSALATGISTLSSPTEETIEVDGATTTPSLPPETRVNVTEKLSDDGAERWPGDPEPPSQGCVASSSAANAHLPISSPALVRDEGHAHITAADYADRQRLLYHITYLSTQLQRAQLQVEDLTRTVCVLRGAVGDSAAATVAKAAVKEDATSAAVLAAKEERDVHAALQASLALFDPVIAQTQIYRLDDALAQVGLLREAELAQLRKANAALQDHRTFVSRLSEELAQLRSKTATLEQEKQRTETQLTAAVLEVEQLRYEERRLNNRVAGLEELAQDGTWMSNVRVVSAAAASTQASVSQQQPLVRLEREEQLARQALLLHVFWDPVLIAFDAGLTWLSDSAALQAKGSAAQEQPVAPGGAKAFVGERDLISLAQAGILVETPALPTDADLLLLQRQQEEVTQLRSRVQLLQERNRVGQLENERLQFLYEGEVRRNERMAKDHAAQLQQAYDEVVRDRQYIMNKLKQEVEDQIRLAYEDGRAYEQSRAKSRRSQKAFRAGNAVL
- soluble on expression in E. coli: not soluble

Sequence: MAHHHHHHMSPASLAKSSQDKTAPSTEGTTRFGDSSPPVAAAASPAMYGQPWNTPTTLHSLVESVTRESGEAAAARAGTSKSTVPRLAVSRSLPCSTTVVQETVTNTGRVVSTVATGAAAPSSLLTGTDTPTPLWRSTATTAAVRAEHLRELEDFLEQRGGRGTSMEGRHKVIQKALSLLPVVYPPLAKVAEPMQRYIEDVAASLRRAATEKGRSAAASGERAVRAVRSVFRREDTRAHAGEEAGRGGGKGGARCRLSPCVQERDVELMAVKEQLMQRMNTCEKTEDQFRDFRHLIASVFNTNQQLNLRIEQLEEVLARHRIDLPPASEEMMAFQTSLDGQRSFVPQASTVDGDGDDDSSSGG
- soluble on expression in E. coli: not soluble

Sequence: MSLNLIKYGLTTAVQADLTKENGQILGRIIGQHRDWYQVITTAGERSAQVTGKLAYEAASPAAFPAVGDWVCLSSSADNQAQIEAIAPRQSVLARGAVNRQDGQIIATNINTIFICMSLNADFNVRRLERYLTIAWDSGALPVIVLTKADLCTDLATKLRAVADVSVGVPTITCSVETGQGLDELQPYLTTGQTVAFVGSSGVGKSTLINRLLGQDILATKSIRTDDNKGRHTTTSRQLIPLPTGACVIDTPGMRELQIFMGDLNQTFAEIAALATQCKFNDCTHTSEPGCAVRAAVEVGTVTSERLQSYQKLQREMSYQGEGHHHHHH
- soluble on expression in E. coli: soluble

Sequence: MTIRMIPHPIFSSPTKRRREKPDPPARAGAAQPSGPARMTPQQQTEWQQRLIALLESQPPDDDGAHDLSHLHRVWAVARTLLAHYPDADSIVVMAGSYLHDLVNLPKNHPQRQLASHWSAERARQLLADSGLTEAQLDNLAHAIEAHSYSAAIPPRTLEARIVQDADRMDALGPVGLARMFYVSGRMGRALAHPLDPLAEHRGRDDQAWAIDHIDVKLAKLPGMMQTEAGRAMAERKLEWLFHFRDEFCRDWMARLEHHHHHH
- soluble on expression in E. coli: soluble

Sequence: MRGPLLPPTVPGWRSRAERFDMAVLEAYEPIERRWQERVSQLDIAVDEIPRIAAKDPESVQWPPEVIADGPIALARLIPAGVDVRGNATRARIVLFRKPIERRAKDTEELGELLHEILVAQVAIYLDVDPSVIDPTIDD
- soluble on expression in E. coli: soluble

Sequence: QMSLEGTEKASWLGEQPQFWSKTQVLDWISYQVEKNKYDASAIDFSRCDMDGATLCNCALEELRLVFGPLGDQLHAQLRDLTSSS
- soluble on expression in E. coli: soluble

Sequence: MSREQAILVGCQLAGVDDERFRYSMEELASLVATANGEVVAEVTQKREAPHPATYIGKGKTEELAAIVKQLEPDVVIFNSELSPSQARNLTKMLGEVKVIDRTQLILDIFARRARSKEGKLQVELAQLEYMLPRLSGQGEALSRLGGGIGTRGPGETKLETDRRHIRRRIDDIKAELVRIAEHRGRYRERRQKNQAFQVALVGYTNAGKSTIFNRLTAADSLEENLLFATLDPLTRKCVLPCGYTVLVTDTVGFIQDLPTTLVAAFRSTLEEVTEADLLLHVVDSSHPDYVAHERTVSRLLAELGASSIPMVTVYNKSDQKASEFIPTTTASIMISALSAADIDRLRYFLEEAVKQQMARYDVSIPSGEGKLLARLKSDTILHEWHYNEQGGTYDCQGYVLPTHPLYGELQSFQR
- soluble on expression in E. coli: soluble

Sequence: MGSDKIHHHHHHMTHLKIFLLLIVCALSVLDGKAQTGIALTDELNGKRIGVIGDSYVRNHKEPFENTWHYKFAKKHGMEYFNYGKNGNSIAYSSPRWGKAMYLRYAEMADSLDYVIVIGGHNDAFKLDSIGGIDNFKDKMEILCKGLVEKYPTAKIFFFTRWNCKNFKGSDSEKVVDAMIEVCGNYSIPIFDCARKGSIYADNDTFRRIYFQKSKNNTDTAHLNSKGHDRFLKVAESFLLQY
- soluble on expression in E. coli: not soluble

Sequence: MVHRLDISSEMIAFFKNCAKNGNYTPFLSNYRGLIRDIGQQLEKVSLPNNSLEKLMVKHFANCFVALHTMNSLDELAASAPKFVADFKQAIGNKKTLKELHDNFKSSDTKQQGLNRKLTNKMERNRSEMKQFKMEMMSSFNGLKQNMDTKMEEMMQLMRALIQDLTSQKLAQNPESSKCSFPNYGLEIQKKFEDMIQNMKSQTGSVFELKLKEIEQLEAEAENTIPKIPKKAAGSSSEH
- soluble on expression in E. coli: not soluble

Sequence: MEYKLHNGSGGLCCKGCSRQDKKLNTYDWLADIPGNAEECDMVEVQFKNTRKGYYRNSNKIKLEKGDIVAVEAAPGHDIGVVTLTGRLVPLQMKKANFKTDVEIKRIYRKAKPVDMEKFNEAKAKEHATMIRARQIALNLNLDMKIGDVEYQGDGNKAIFYYIADERVDFRQLIKVLAEAFRVRIEMKQIGARQEAGRIGGIGPCGRELCCATWMTSFVSVSTSAARFQDISLNPQKLAGQCAKLKCCLNYEVDCYVEAQKRLPSKEIELETKDGTFYFFKADILSNHVSYSTDKNFPANLVTISGKRAFEVIAMNKKGMKPDSLLEAEVKQESKKPIDLLEQESLTRFDRNRNNKDGNNGNRNKKKRKGNNDNRPQAQAESGNRPQQPQRGENENRPQPSENGNRGERGDRENRPRNNNNNNRNRGQNQGRNNENRRPERGQNQERPQNPNRPQNQERSQNQERPVNQERNQERNQERPQNRERQPKQERPQNQERPQEQGRQPNQERIPRPERNSNQEKPQNNEKPAQELEHHHHHH
- soluble on expression in E. coli: soluble

Sequence: MTYGYPKKWKENMTSGQVIAAELRLGIVSGEIESHIQLSENQVAQQFNVSRSPVRDAFKLLQTDQLIQLERMGAQVLPFGDQEKKEMYDLRLMLESFAFSKLSGTDTQHIIKEMKKQLEMMKVAVQFEDAEAFTQHDFEFHEVMIQATNHQYLKVFWNHLKPVMESLILISMRQRMANDPKDFERIHKNHQVFIDAVENDDASILRKAFHLNFDDVGENIEAFWLR
- soluble on expression in E. coli: not soluble

Sequence: KEELESIINSSPVIVFLWKYEEGWPIEFVSENVTRLGYEVEDFTSRKILYGNIVYPGDLEKVERELARNIEFGCEDYSSEYRILTKSGEVRWVDERTFIQRDEKGEIRLQGIILDIT
- soluble on expression in E. coli: not soluble
